Reference: patent US20100166759A1

Molecular target: MT2 protein (from Sigma) (UniProt P02795)
Assay: SPR (BIAcoreX), MT2 immobilised on CM5 chip, peptide injected

Binder | Kd [nM] | koff [s⁻¹] | kon [M⁻¹ s⁻¹]
SAGSCKCKESKSTS [MTBcc peptide] | 160 | 0.000501 | 2830
KKSSCSCSPVGSAK [MTAn peptide] | 367 | 0.00574 | 15700
AQGSICKGASDKSS [MTAcc peptide] | 89.5 | 0.0004 | 4540
